Measured values: US20240082302A1 (University of Pennsylvania, published 2024)

T1: human TIM-3 expressed on cells (NB4-TIM3 cells; human AML leukemic stem cells) (human, UniProt Q8TDQ0 22-301)
T1 construct: whole, on cells; also called NB4-expressing human TIM-3
T1 sequence (looked up): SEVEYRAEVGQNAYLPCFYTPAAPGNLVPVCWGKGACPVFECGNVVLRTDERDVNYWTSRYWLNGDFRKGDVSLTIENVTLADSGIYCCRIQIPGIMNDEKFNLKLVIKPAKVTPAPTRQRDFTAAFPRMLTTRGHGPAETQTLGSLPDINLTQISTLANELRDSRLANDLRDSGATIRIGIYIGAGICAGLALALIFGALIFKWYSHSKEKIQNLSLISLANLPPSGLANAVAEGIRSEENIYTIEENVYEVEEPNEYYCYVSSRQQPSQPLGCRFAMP

B1: Anti-TIM3 VHH12 (VHH)
VHH: QVQLQESGGGLVQTGDSLRLSCVVSGGTFRNYVMGWFRQAPGKEREFVSAMNWSGGITVYADSVKGRFTISRDNAKNAVYLQMGSLKPGDTAVYYCAAAAIDGGTVRSINSYAYWGQGTQVTVSS
notes: Llama VHH isolated as a phage display clone (pCOMB3X)
B2: Anti-TIM3 VHH13 (VHH)
VHH: QVQLQESGGGLVQAGGSLSLSCAASGRTFKNYLMAWFRQTPGKEREFVAAITQLGTRSLNEDFVKGRFTISRDNAKNTVYLQMNDLKTDDTGVYSCAASLQSGGSLRYAKYDYWGQGTQVTVSS
notes: as for B1
B3: Anti-TIM3 VHH38 (VHH)
VHH: QVQLQESGGGLVQAGDSLRLSCAVGRTFSASTLGWFRQSPGKEREFVAAISWWRGEAYYGDSVKGRFTISRDNTKTTINLQMNSLKPEDTAVYYCARAQFDGATRADDYDNWGQGTQVTVSS
notes: as for B1
B4: Anti-TIM3 VHH30 (VHH)
VHH: QVQLQESGGGLVQAGGSLRLSCAASGFTFGSYVMGWFRQAPGKEREFVASISTSGGITSYADSVKGRFTVSRDNAKNTVYLQMNSLKPEDTAVYYCARDLTYYRTGGRLPDNANGYAYWGQGTQVTVSS
notes: Llama VHH tested as a phage clone (pCOMB3X phage display) by flow cytometry on cells
B5: Anti-TIM3 VHH33 (VHH)
VHH: QVQLQESGGGLVQPGGSLRLSCAVSGLTPDAYVMGWFRQAPGKEREGVSCISPSGGTTSYPDSVKGRFTISRDNAKNTVYLQMNSLKPEDTGVYYCAAVAGRWCDYGMNYYGKGTQVTVSS
notes: as for B4
B6: Anti-TIM3 VHH32 (VHH)
VHH: QVQLQESGGGLVQAGGSLNLSCAASGSSFRLYTVGWHRQAPGKQRELVAWISGAGSTNYHSSVKGRFTISRDNAKNTALLQMNNLAPEDTAVYYCNLLNYWGQGTQVTVSS
notes: as for B4

The binders below were run against T1, human TIM-3 expressed on cells … (assay: phage display panning/screening on TIM-3 expressing NB4 cells).
Text: To generate VHHs targeting human TIM-3, human recombinant extracellular TIM-3 purified from HEK293 cells was used to immunize llamas, and the resulting VHH phage display libraries were constructed. The phage VHH clones targeting TIM-3 were screened by panning through TIM-3 expressing NB4 cells. The positive clones specifically binding to TIM-3 expressing NB4 cells were isolated. DNA encoding each of the VHHs, including VHH30, 32, and 33, were sequenced. The sequences were consistent with the predicted sequences for VHHs. Each of the VHHs, with both nucleotide and amino acid sequences, are listed below.

Binder | binding result
B1 | binds
B2 | binds
B3 | binds

These binders were tested against T1, human TIM-3 expressed on cells … (assay: flow cytometry, VHH phage clones on NB4 cells expressing human TIM-3).

Binder | binding result
B4 | binds
B5 | binds
B6 | binds
